In publication PMC6090299, “Quantitative Analysis of Interaction Between CADM1 and Its Binding Cell-Surface Proteins Using Surface Plasmon Resonance Imaging” (Frontiers in Cell and Developmental Biology, 2018):

Target: T1, CADM1-Fc (human (by the printed RefSeq entry), UniProt Q9BY67-1 45-374)
T1 construct: signal peptide in the construct; CADM1 extracellular domain, NP_055148, 1-374 a.a; Human IgG2-Fc fragment from pFUSE-hIgG2-Fc1; Glycosylated; also called cell adhesion molecule 1 extracellular domain fused with Fc; source: FreeStyle 293-F cells, transiently transfected, purified from the supernatant (Protein G Sepharose); not shown: Fc (human IgG2), C-terminal, kept
T1 sequence (looked up): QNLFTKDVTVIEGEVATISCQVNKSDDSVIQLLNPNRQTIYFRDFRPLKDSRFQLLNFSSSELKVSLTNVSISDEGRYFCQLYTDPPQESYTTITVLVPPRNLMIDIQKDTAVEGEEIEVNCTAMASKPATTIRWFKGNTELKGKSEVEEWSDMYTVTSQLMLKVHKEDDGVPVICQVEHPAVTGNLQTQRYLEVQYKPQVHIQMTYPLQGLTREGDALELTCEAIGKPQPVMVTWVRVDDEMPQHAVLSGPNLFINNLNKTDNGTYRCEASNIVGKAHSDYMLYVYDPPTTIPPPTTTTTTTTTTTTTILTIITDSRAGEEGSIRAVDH
Assay: SPR; SPR imaging (OpenPlex); the 10 IgSF-Fc proteins (7-24 μM) spotted in hexaplicate and immobilised by amine coupling; 2.4 μM CADM1-Fc injected for 4 min; 25°C; PBS with 0.2% BSA and 0.02% Tween20, 50 μL/min; signal of normal human IgG subtracted
Conditions: both partners purified

B1: CRTAM-Fc (Fc fusion, human (by the printed RefSeq entry), UniProt O95727-1 18-287, looked up)
chain: SLTNHTETITVEEGQTLTLKCVTSLRKNSSLQWLTPSGFTIFLNEYPALKNSKYQLLHHSANQLSITVPNVTLQDEGVYKCLHYSDSVSTKEVKVIVLATPFKPILEASVIRKQNGEEHVVLMCSTMRSKPPPQITWLLGNSMEVSGGTLHEFETDGKKCNTTSTLIIHTYGKNSTVDCIIRHRGLQGRKLVAPFRFEDLVTDEETASDALERNSLSSQDPQQPTSTVSVTEDSSTSEIDKEEKEQTTQDPDLTTEANPQYLGLARKKSG
notes: signal peptide in the construct; CRTAM extracellular domain, NP_062550, 1-287 a.a; Human IgG2-Fc fragment from pFUSE-hIgG2-Fc1; also called class-I MHC-restricted T-cell-associated molecule; source: FreeStyle 293-F cells, transiently transfected, purified from the supernatant (Protein G Sepharose); not shown: Fc (human IgG2), C-terminal, kept
Q: Which results are given for B1?
A: Kd: 3.3 nM; koff: 0.00011 s⁻¹; kon: 31000 M⁻¹ s⁻¹
